According to patent US11254722B2, “Recombinant proteins and uses thereof” (ACADEMIA SINICA, priority 2017, dated 2022):
Blank lines part the entries; values can stand above or below the molecule they belong to.

Columns and labels:
[1] = test system: hep3B cells; experiment: hep3B proliferation assay; type: cell-based, human
Protocol: (§1) For the proliferation assay, cells except for HUVEC were seeded at a density of 1,000 to 6,000 in 96 wells in an assay buffer of DMEM/F12 plus 0.2% BSA and 10 ug/ml transferrin. Chemical inhibitors were added after 16-20 hours after plating; IGF-1 or other growth factors or test chimeras in assay buffer were added at the time of plating or 16-20 hours after plating. 5,000 HUVEC ells were plated in poly-L-lysine coated 96 wells in M199 with 1%/FBS and HEPES. After 3 to 4 days of culture, growth was determined by incubating cells with Alamar blue for 4 to 6 hours and then the fluorescence (RFU) at 544/590 nm was read. For long term proliferation assays, cells were plated in the growth media with 5% or 10% FBS at densities of 500 to 10,000 cells per cm^2 growth area and grown for 7 to 21 days. Inhibitors and effectors were added 1-4 days after plating. Cells were exposed to cisplatin or gemcitabine for two days. Medium was renewed twice weekly. At completion, cells were fixed and then stained with Giemsa.
The human hepatoma cell line hep3B could be stimulated by many growth factors including IGF-1, IGF-2, HGF, bFGF, VEGF, and neuregulin.

[2] = test system: HT29 cells; experiment: HT29 proliferation assay; type: cell-based, human; settings: FIG. 17A isobologram, FIG. 17B
Protocol: (§2) MCF-7 cells (a breast cancer cell line) were maintained in MEM (GIBCO) plus insulin and NEAA and 10% FBS (Hyclone).
as §1
The combination of drug (erlotinib and vemurafenib in hep3b and HT29 cells, respectively) and chimera can be synergistic; so, in addition to enhancing the inhibition, the chimera addition may also lower drug concentration requirements and reduce side effects.

[3] = test system: HUVEC cells; experiment: HUVEC proliferation assay; type: cell-based
Protocol: as §2, §1
Growth factor synergism can also be observed in the proliferation of HUVEC cells.

[4] = test system: MCF-7 breast cancer cells; experiment: MCF-7 proliferation assay; type: cell-based; settings: fetal bovine serum; FIG. 1, FIG. 4
Protocol: as §2, §1
We next examined the effect of 56662 (BP3/Fc) on the proliferation induced by growth factors that interacted with the IGFBP3. The proliferation of MCF-7 breast cancer cells was induced in serum-free medium by individual growth factors like IGF-1, IGF-2, EGF, TGF-a, Nrgbx, b-FGF, and amphiregulin (FIG. 1).

Molecule: COc1cccc2c1C(=O)c1c(O)c3c(c(O)c1C2=O)C[C@@](O)(C(=O)CO)C[C@@H]3O[C@H]1C[C@H](N)[C@H](O)[C@H](C)O1 [doxorubicin, reference compound]
proliferation of hep3B cells ([1]; 0.01 uM doxorubicin): greatly inhibited

B1: D2V1V2Fc: IGFBP3 with IGFBP3 linker deletion 2-gly 3 linker-v1v2-Fc, SEQ ID NO: 17 (protein)
chain: MSEVPVARVWLVLLLLTVQVGVTAGHHHHHHGASSAGLGPVVRCEPCDARALAQCAPPPAVCAELVREPGCGCCLTCALSEGQPCGIYTERCGSGLRCQPSPDEARPLQALLDGRGLCVNASAVSRPAPPAPGNASESEEDRSAGSVESPSVSSTHRVSDPKFHPKGHAKDSQRYKVDYESQSTDTQNFSSESKRETEYGPCRREMEDTLNHLKFLNVLSPRGVHIPNCDKKGFYKKKQCRPSKGRKRGFCWCVDKYGQPLPGYTTKGKEDVHCYSMQSKAPPAPGNASESEEDRSAGIYIFISDTGRPFVEMYSEIPEIIHMTEGRELVIPCRVTSPNITVTLKKFPLDTLIPDGKRIIWDSRKGFIISNATYKEIGLLTCEATVNGHLYKTNYLTHRQGYRIYDVVLSPSHGIELSVGEKLVLNCTARTELNVGIDFNWEYPSSKHQHKKLVNRDLKTQSGSEMKKFLSTLTIDGVTRSDQGLYTCAASSGLMTKKNSTFVRVHEKVECPPCPAPPVAGPSVFLFPPKPKDQLMISRTPEVTCVVVDVSHEDPEVKFNWYVDGVEVHNAKTKPREEQYNSTYRVVSVLTVLHQDWLNGKEYKCKVSNKGLPSSIEKTISKAKGQPREPQVYTLPPSREEMTKNQVSLTCLVKGFYPSDIAVEWESNGQPENNYKTTPPVLDSDGSFFLYSKLTVDKSRWQQGNVFSCSVMHEGLHNHYTQKSLSLSPGK
inhibition with vemurafenib in HT29 cells [2]: synergistic inhibition
inhibition of HUVEC proliferation stimulated by IGF-1, bFGF, HGF, VEGF, and combinations ([3]; FIG. 14): inhibited

B2: 3(del2)3: IGFBP3 with IGFBP3 linker deletion 2-Fc, SEQ ID NO: 11 (protein)
chain: MSEVPVARVWLVLLLLTVQVGVTAGGASSAGLGPVVRCEPCDARALAQCAPPPAVCAELVREPGCGCCLTCALSEGQPCGIYTERCGSGLRCQPSPDEARPLQALLDGRGLCVNASAVSRPAPPAPGNASESEEDRSAGSVESPSVSSTHRVSDPKFHPKGHAKDSQRYKVDYESQSTDTQNFSSESKRETEYGPCRREMEDTLNHLKFLNVLSPRGVHIPNCDKKGFYKKKQCRPSKGRKRGFCWCVDKYGQPLPGYTTKGKEDVHCYSMQSKVECPPCPAPPVAGPSVFLFPPKPKDQLMISRTPEVTCVVVDVSHEDPEVKFNWYVDGVEVHNAKTKPREEQYNSTYRVVSVLTVLHQDWLNGKEYKCKVSNKGLPSSIEKTISKAKGQPREPQVYTLPPSREEMTKNQVSLTCLVKGFYPSDIAVEWESNGQPENNYKTTPPVLDSDGSFFLYSKLTVDKSRWQQGNVFSCSVMHEGLHNHYTQKSLSLSPGK
inhibition of VEGF-induced proliferation of HUVEC cells ([3]; FIG. 6, FIG. 13): did not inhibit
inhibition of HUVEC proliferation induced by IGF, bFGF, HGF or a combination ([3]; FIG. 13): inhibited

IC50, FBS-stimulated proliferation of hep3B cells ([1]; Table 10): no inh
IC50, HGF-stimulated proliferation of hep3B cells ([1]; Table 10): no inh
IC50, IGF1-stimulated proliferation of hep3B cells ([1]; Table 10): No inh
IC50, bFGF-stimulated proliferation of hep3B cells ([1]; Table 10): no inh
IC50, nrg-stimulated proliferation of hep3B cells ([1]; Table 10): No inh
B3: met3con: SEQ ID NO: 32; Met3con is the met3 domain Fc (protein)
chain: MSEVPVARVWLVLLLLTVQVGVTAGAAASGGGSGGGGSGGGGSGGGGDPIVYEIHPTKSFISTWWKEPLNIVSFLFCFASGGSTITGVGKNLNSVSVPRMVINVHEAGRNFTVACQHRSNSEIICCTTPSLQQLNLQLPLKTKAFFMLDGILSKYFDLIYVHSGGGSGGGTGVECPPCPAPPVAGPSVFLFPPKPKDQLMISRTPEVTCVVVDVSHEDPEVKFNWYVDGVEVHNAKTKPREEQYNSTYRVVSVLTVLHQDWLNGKEYKCKVSNKGLPSSIEKTISKAKGQPREPQVYTLPPSREEMTKNQVSLTCLVKGFYPSDIAVEWESNGQPENNYKTTPPVLDSDGSFFLYSKLTVDKSRWQQGNVFSCSVMHEGLHNHYTQKSLSLSPGK

B4: 105795: IGFBP3 with IGFBP4 linker deletion-Fc, SEQ ID NO: 9 (protein)
chain: MSEVPVARVWLVLLLLTVQVGVTAGGASSAGLGPVVRCEPCDARALAQCAPPPAVCAELVREPGCGCCLTCALSEGQPCGIYTERCGSGLRCQPSPDEARPLQALLDGRGLCMELAEIEAIQESLQPSDKDEGDHPNNSFSPCSAHDRRCLQETEYGPCRREMEDTLNHLKFLNVLSPRGVHIPNCDKKGFYKKKQCRPSKGRKRGFCWCVDKYGQPLPGYTTKGKEDVHCYSMQSKVECPPCPAPPVAGPSVFLFPPKPKDQLMISRTPEVTCVVVDVSHEDPEVKFNWYVDGVEVHNAKTKPREEQYNSTYRVVSVLTVLHQDWLNGKEYKCKVSNKGLPSSIEKTISKAKGQPREPQVYTLPPSREEMTKNQVSLTCLVKGFYPSDIAVEWESNGQPENNYKTTPPVLDSDGSFFLYSKLTVDKSRWQQGNVFSCSVMHEGLHNHYTQKSLSLSPGK
inhibition of FBS-induced proliferation of MCF-7 [4]: unable to inhibit

B5: 80716: IGFBP3 with IGFBP6 linker-gly 6 linker-v1v2-Fc, SEQ ID NO: 16 (protein)
chain: MSEVPVARVWLVLLLLTVQVGVTAGGASSAGLGPVVRCEPCDARALAQCAPPPAVCAELVREPGCGCCLTCALSEGQPCGIYTERCGSGLRCQPSPDEARPLQALLDGRGLCPARAPAVAEENPKESKPQAGTARPQDVNRRDQQRNPGTSTTPSQPNSAGVQDTEMGPCRREMEDTLNHLKFLNVLSPRGVHIPNCDKKGFYKKKQCRPSKGRKRGFCWCVDKYGQPLPGYTTKGKEDVHCYSMQSKPARAPAVAEENPKESKPQAGTARPQDVNRRDQQRNPGTSTTPSQPNSAGVQDTEMIYIFISDTGRPFVEMYSEIPEIIHMTEGRELVIPCRVTSPNITVTLKKFPLDTLIPDGKRIIWDSRKGFIISNATYKEIGLLTCEATVNGHLYKTNYLTHRQGYRIYDVVLSPSHGIELSVGEKLVLNCTARTELNVGIDFNWEYPSSKHQHKKLVNRDLKTQSGSEMKKFLSTLTIDGVTRSDQGLYTCAASSGLMTKKNSTFVRVHEKVECPPCPAPPVAGPSVFLFPPKPKDQLMISRTPEVTCVVVDVSHEDPEVKFNWYVDGVEVHNAKTKPREEQYNSTYRVVSVLTVLHQDWLNGKEYKCKVSNKGLPSSIEKTISKAKGQPREPQVYTLPPSREEMTKNQVSLTCLVKGFYPSDIAVEWESNGQPENNYKTTPPVLDSDGSFFLYSKLTVDKSRWQQGNVFSCSVMHEGLHNHYTQKSLSLSPGK
inhibition of FBS-induced proliferation of MCF-7 [4]: unable to inhibit
